# In publication PMC6262466, “Towards Initial Indications for a Thiol-Based Redox Control of Arabidopsis 5-Aminolevulinic Acid Dehydratase” (Antioxidants, 2018):
# B1: recombinant His-tagged ALAD (ALAD1 without the predicted transit peptide) (enzyme, Arabidopsis thaliana, UniProt Q9SFH9 53-430, looked up)
# chain: ASESGNGHAKKLGMSDAECEAAVAAGNVPEAPPVPPKPAAPVGTPIIKPLNLSRRPRRNRASPVTRAAFQETDISPANFVYPLFIHEGEEDTPIGAMPGCYRLGWRHGLVQEVAKARAVGVNSIVLFPKVPEALKNSTGDEAYNDNGLVPRTIRLLKDKYPDLIIYTDVALDPYSSDGHDGIVREDGVIMNDETVHQLCKQAVSQARAGADVVSPSDMMDGRVGAIRSALDAEGFQNVSIMSYTAKYASSFYGPFREALDSNPRFGDKKTYQMNPANYREALIEAREDEAEGADILLVKPGLPYLDIIRLLRDKSPLPIAAYQVSGEYSMIKAGGVLKMIDEEKVMMESLMCLRRAGADIILTYFALQAATCLCGEKR
# notes: Arabidopsis thaliana ALAD1 (HEMB1; AT1G69740) without the predicted transit peptide (ChloroP); also called recombinant ALAD; purified ALAD; source: E. coli Rosetta(DE3), pET28a, purified (Ni-NTA agarose); not shown: His6, N-terminal, kept
# Biological target: the molecule itself
# Test: non-reducing SDS-PAGE with immunoblot; 0.5 uM purified His-ALAD preincubated in PBS, untreated or oxidized (1 mM H2O2); non-reducing 10% SDS polyacrylamide gel; anti-His blot
protein,measurement,value
B1,binding result,binds
